According to patent US20060239990:

Columns and labels:
[1] = target: GST-Stat3 Arg31→Ala31 [GST: P08515]
[2] = target: mouse STAT3 (endogenous in GT1-7 cells and VSMC, or expressed from mouse STAT3 pcDNA3 in HEK293 cells), P42227
[3] = target: GST-Stat3 fusion protein, P42227
Sequence of GST-Stat3 fusion protein, P42227 (P42227 whole entry, the tested form may be a part): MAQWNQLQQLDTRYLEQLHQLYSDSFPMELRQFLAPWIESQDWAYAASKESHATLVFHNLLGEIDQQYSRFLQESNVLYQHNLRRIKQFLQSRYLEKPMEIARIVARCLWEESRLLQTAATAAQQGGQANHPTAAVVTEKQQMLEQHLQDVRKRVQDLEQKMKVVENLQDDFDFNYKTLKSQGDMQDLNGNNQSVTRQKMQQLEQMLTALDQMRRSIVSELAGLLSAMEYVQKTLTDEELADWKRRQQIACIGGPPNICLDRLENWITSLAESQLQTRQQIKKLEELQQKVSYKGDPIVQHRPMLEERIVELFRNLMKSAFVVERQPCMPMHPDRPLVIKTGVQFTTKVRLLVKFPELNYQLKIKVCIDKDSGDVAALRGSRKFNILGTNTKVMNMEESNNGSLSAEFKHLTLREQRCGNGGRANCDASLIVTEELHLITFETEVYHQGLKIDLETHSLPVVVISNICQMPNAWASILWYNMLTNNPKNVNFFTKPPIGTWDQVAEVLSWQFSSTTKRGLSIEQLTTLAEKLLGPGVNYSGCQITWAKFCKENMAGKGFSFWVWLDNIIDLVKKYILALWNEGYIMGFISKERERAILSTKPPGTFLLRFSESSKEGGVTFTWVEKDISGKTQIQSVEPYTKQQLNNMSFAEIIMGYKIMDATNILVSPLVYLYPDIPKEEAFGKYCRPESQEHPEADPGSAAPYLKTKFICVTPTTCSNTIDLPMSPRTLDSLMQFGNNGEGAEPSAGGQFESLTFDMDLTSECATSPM

Sequence of mouse STAT3 (endogenous in GT1-7 cells and VSMC, or expressed from mouse STAT3 pcDNA3 in HEK293 cells), P42227 (P42227 2-770): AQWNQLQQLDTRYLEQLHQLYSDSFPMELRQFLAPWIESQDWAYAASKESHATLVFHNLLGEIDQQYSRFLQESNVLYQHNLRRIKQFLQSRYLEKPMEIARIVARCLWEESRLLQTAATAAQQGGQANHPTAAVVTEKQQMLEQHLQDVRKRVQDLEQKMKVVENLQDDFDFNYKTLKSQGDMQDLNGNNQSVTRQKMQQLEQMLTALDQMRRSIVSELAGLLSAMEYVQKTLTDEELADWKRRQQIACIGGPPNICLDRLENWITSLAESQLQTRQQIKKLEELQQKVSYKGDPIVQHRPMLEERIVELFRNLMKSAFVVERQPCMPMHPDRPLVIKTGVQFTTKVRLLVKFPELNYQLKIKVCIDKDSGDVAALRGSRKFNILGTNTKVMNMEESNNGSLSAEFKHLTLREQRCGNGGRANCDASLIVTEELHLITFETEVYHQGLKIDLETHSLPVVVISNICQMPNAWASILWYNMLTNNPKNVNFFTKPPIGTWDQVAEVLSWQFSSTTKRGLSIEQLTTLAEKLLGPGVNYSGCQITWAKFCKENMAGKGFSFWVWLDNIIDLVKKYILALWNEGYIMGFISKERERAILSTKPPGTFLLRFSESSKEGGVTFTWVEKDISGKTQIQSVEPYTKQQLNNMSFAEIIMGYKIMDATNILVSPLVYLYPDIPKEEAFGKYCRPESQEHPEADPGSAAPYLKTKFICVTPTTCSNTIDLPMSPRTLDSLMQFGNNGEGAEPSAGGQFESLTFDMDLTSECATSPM
Sequence of GST-Stat3 Arg31→Ala31 [GST: P08515] (P08515 whole entry, looked up): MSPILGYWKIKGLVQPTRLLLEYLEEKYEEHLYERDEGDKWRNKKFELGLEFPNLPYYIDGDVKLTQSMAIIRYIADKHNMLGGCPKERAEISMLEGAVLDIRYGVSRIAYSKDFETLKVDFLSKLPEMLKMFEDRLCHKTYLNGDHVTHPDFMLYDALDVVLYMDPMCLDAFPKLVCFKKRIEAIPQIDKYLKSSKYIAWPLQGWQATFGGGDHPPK

Protein | in vitro methylation with [3H]-AdoMet, MEF extracts as the enzyme source [1] | leptin-induced Stat3 methylation in VSMC (anti-Stat3 immunoprecipitation, immunoblot with α-metR antibody) [2] | in vitro methylation with [3H]-AdoMet, MEF extracts as the enzyme source [3] | in vitro methylation with [3H]-AdoMet [3]
mouse PRMT2 (untagged; endogenous in NIH3T3 cells, MEFs, GT1-7 cells and VSMC, or expressed from mouse PRMT2 cDNA in HEK293 cells) (protein) MEAPGEGPCSESQVIPVLEEDPVDYGCEMQLLQDGAQLQLQLQPEEFVAIADYTATDETQLSFLRGEKILILRQTTADWWWGERAGCCGYIPANHLGKQLEEYDPEDTWQDEEYFDSYGTLKLHLEMLADQPRTTKYHSVILQNKESLKDKVILDVGCGTGIISLFCAHHARPKAVYAVEASDMAQHTSQLVLQNGFADTITVFQQKVEDVVLPEKVDVLVSEWMGTCLLFEFMIESILYARDTWLKGDGIIWPTTAALHLVPCSAEKDYHSKVLFWDNAYEFNLSALKSLAIKEFFSRPKSNHILKPEDCLSEPCTILQLDMRTVQVPDLETMRGELRFDIQKAGTLHGFTAWFSVYFQSLEEGQPQQVVSTGPLHPTTHWKQTLFMMDDPVPVHTGDVVHGFCCVTKKSGMEKAHVCLSELGCHVRTRSHVSTELETGSFRSGGDS | This mutation resulted in substantially no methylation of Stat3 (FIG. 20B, lane 3) | leptin (100 nM) evoked a transient methylation of Stat3 at 10 min in wild-type VSMC (FIG. 22D, lane 2-5), whereas increased Stat3 methylation was not observed in PRMT2^-/- cells (FIG. 22D, lane 6-9) | Cell extracts from wild-type MEFs were also capable of methylating GST-Stat3, whereas cell extracts from PRMT2^-/- cells abolished Stat3 methylation (FIG. 20B, lanes 2 and 4) | –
mouse PRMT2-Flag (FLAG-tagged full-length PRMT-2) (protein) MEAPGEGPCSESQVIPVLEEDPVDYGCEMQLLQDGAQLQLQLQPEEFVAIADYTATDETQLSFLRGEKILILRQTTADWWWGERAGCCGYIPANHLGKQLEEYDPEDTWQDEEYFDSYGTLKLHLEMLADQPRTTKYHSVILQNKESLKDKVILDVGCGTGIISLFCAHHARPKAVYAVEASDMAQHTSQLVLQNGFADTITVFQQKVEDVVLPEKVDVLVSEWMGTCLLFEFMIESILYARDTWLKGDGIIWPTTAALHLVPCSAEKDYHSKVLFWDNAYEFNLSALKSLAIKEFFSRPKSNHILKPEDCLSEPCTILQLDMRTVQVPDLETMRGELRFDIQKAGTLHGFTAWFSVYFQSLEEGQPQQVVSTGPLHPTTHWKQTLFMMDDPVPVHTGDVVHGFCCVTKKSGMEKAHVCLSELGCHVRTRSHVSTELETGSFRSGGDS | – | – | – | Flag fusion protein from the cells transfected wild-type PRMT2-Flag cDNA could methylate GST-Stat3
